Results as given in patent US8440413B2, “Method of screening for a substance that strengthens a bond between thioredoxin and macrophage migration inhibition factor” (Redox Bioscience, Inc., priority 2006, dated 2013).
Residue numbers refer to the chain shown, from its start. Read-outs that look alike come from different tables or passages of the source. Values belong to the molecule of their own block, whether it stands above or below them.

How the values were obtained:
[1] = biological target: T1, bond between rTRX and rMIF (Homo sapiens, UniProt P10599); experiment: Screening by molecular interaction analysis (Biacore, SPR) for substances that strengthen the bond between TRX and MIF, Example 7; assay type: binding; conditions: analyte: rTRX 5 μM mixed with test substance 500 μM (Prostaglandin I2 also 5 μM); compared with rTRX only (FIGS. 7 to 11)
T1 construct: His tag; made in house; host or cells: Escherichia coli
T1 sequence (P10599 1-105): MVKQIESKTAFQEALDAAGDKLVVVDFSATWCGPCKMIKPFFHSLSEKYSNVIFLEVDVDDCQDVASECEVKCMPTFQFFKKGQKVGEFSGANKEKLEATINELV
Experimental: For several test substances, it was confirmed with a molecular interaction analysis whether they strengthened the bond between TRX and MIF or not. rMIF was immobilized in a CM5 sensor chip as a ligand. The ligand was adjusted to have the rMIF concentration of less or equal to 200 nM by using running buffer, 10 mM HEPES (pH7.4), 150 mM NaCl, 3 mM EDTA and 0.005% Tween 20. […] In each analyte, the concentration of rTRX was 5 μM and the concentration of the test substance was 500 μM. For Prostaglandin I2, the analyte having its concentration of 5 μM was also analyzed.

MIF [2] = biological target: T2, MIF (Homo sapiens, UniProt P14174); experiment: Immunoprecipitation / Western blotting of the bond between TRX and MIF in cells; assay type: cell-based; conditions: ATL2 cells and HL60 cells; anti MIF antibody immunoprecipitation, anti TRX Western blotting (FIG. 1)
T2 construct: endogenous in cells; host or cells: ATL2 cells (concentrated culture supernatant)
T2 sequence (P14174 1-115): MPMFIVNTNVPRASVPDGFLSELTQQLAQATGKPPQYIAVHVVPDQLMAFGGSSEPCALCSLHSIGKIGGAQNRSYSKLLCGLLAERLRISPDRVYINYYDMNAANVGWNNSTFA
Experimental: The bonds between TRX and MIF in ATL2 cells and HL60 cells were confirmed with an immunoprecipitation method (to be described in detail below).
The cells were cultured with RPMI 1640 (SIGMA Inc.) medium containing 10% FCS, 100 U/ml penicillin and 100 μg/ml streptomycin in a 175 cm^2 flask.
1×10^7˜8/cell of the cells were collected and centrifugated at 1,000 rpm and 4° C. for 15 minutes. The obtained precipitation was dissolved with lysis buffer and left on the ice for 30 minutes.
The solution was centrifugated at 1,000 rpm and 4° C. for 15 minutes. The obtained supernatant was used for the immunoprecipitation experiment. The concentration of the protein was measured with DC protein assay kit (BIO RAD Inc.).
20 μl Protein G Sepharose and 500 μg of the cell solution were added to a microtube, and phosphate buffer was used to adjust the amount to 1 ml. The obtained solution was reacted at 4° C. for 3 hours with a small rotary incubator. The cell solution was centrifugated at 15,000 rpm and 4° C. for 2 minutes. The obtained supernatant was added to a new microtube, and 20 μl Protein G Sepharose and 4 μg/ml anti MIF antibody were also added thereto.
(§1) For a control, anti Rabbit antibody was used instead of the anti MIF antibody.
The reaction was carried out with a small rotary incubator at 4° C. for overnight. The reaction solution was centrifugated at 15,000 rpm and 4° C. for 2 minutes. […]

rMIF [3] = biological target: T3, rMIF (Homo sapiens, UniProt P14174); experiment: Molecular interaction analysis (Biacore, SPR) of the bond between rTRX and rMIF, Example 5; assay type: binding; conditions: rMIF immobilized on CM5 sensor chip; rTRX 2 to 12 μM (FIG. 5)
T3 construct: His tag; made in house; host or cells: Escherichia coli
T3 sequence (P14174 1-115): T2 sequence (P14174 1-115)
Experimental: The bond between TRX and MIF was confirmed with a molecular interaction analysis (Biacore) (hereinafter, referred to as “molecular interaction analysis”) utilizing surface plasmon resonance (SPR) phenomenon.
rMIF was immobilized in a CM5 sensor chip as a ligand. The ligand was adjusted to include MIF less or equal to 200 nM by using running buffer, 10 mM HEPES (pH7.4), 150 mM NaCl, 3 mM EDTA and 0.005% Tween 20.
Then, rTRX was used as an analyte to analyze the interaction between rTRX and rMIF. The concentration of rTRX was changed to 2 μM, 4 μM, 6 μM, 8 μM, 10 μM and 12 μM for the analysis.

ATL2 cells = experiment: Inhibition of the cell internalization of MIF into ATL2 cells (Western blotting, densitometer); assay type: cell-based, human; conditions: rTRX 0 to 250 μg/ml, 25 μg/ml rMIF, 24 hours (FIG. 3)
Experimental: MIF is internalized (incorporated) into cells by the autocrine or paracrine action to induce the production of inflammatory cytokine TNF-alpha(α) or IL-1. Thus, the effects of TRX on the cell internalization of MIF were examined to clarify the inflammation response control mechanism.
ATL2 cells were cultured with RPMI 1640 medium containing 10% FCS, 100 U/ml penicillin and 100 μg/ml streptomycin in a 75 cm^2 flask.
1×10^6/cell of ATL2 cells were added to a 24 well plate. rTRX having the final concentration of 0 to 250 μg/ml and 25 μg/ml rMIF were also added thereto, and cultured under the condition of […] at 37° C. for 24 hours.
After cells were collected, the precipitation was mixed with SDS-PAGE sample buffer, and then electrophoresed on a 15% SDS-PAGE gel. After the electrocataphoresis, a Western blotting was performed to detect MIF internalized in the cells with anti His-tagged antibody. The change of the band by the Western blotting was analyzed with a densitometer.

MIF [4] = biological target: T2, MIF; experiment: Immunoprecipitation / Western blotting of the bond between TRX and MIF outside ATL2 cells (culture supernatant); assay type: binding; conditions: anti MIF antibody immunoprecipitation, anti TRX Western blotting (FIG. 2)
Experimental: The bond between TRX and MIF outside ATL2 cells was confirmed with an immunoprecipitation method.
1×10^5/cell of the ATL2 cells were cultured with RPMI 1640 (SIGMA Inc.) medium containing 100 U/ml penicillin and 100 μg/ml streptomycin in a 175 cm^2 flask for 3 days. Then, the medium was collected and centrifugated at 10,000 rpm and 4° C. for 15 minutes. Then, FCS was added to the obtained supernatant to adjust the final concentration to 10%, and the solution was concentrated with Amicon ultra-4. The obtained concentrated-solution was used for the immunoprecipitation experiment. 20 μl Protein G Sepharose and 30 μl of the culture supernatant were added to a microtube, and phosphate buffer was used to adjust the amount to 1 ml. The obtained solution was reacted at 4° C. for 3 hours with a small rotary incubator. The cell solution was centrifugated at 15,000 rpm and 4° C. for 2 minutes. The obtained supernatant was added to a new microtube, and 20 μl Protein G Sepharose and 4 μg/ml of the anti MIF antibody were also added thereto.
as §1
The reaction was carried out with a small rotary incubator at 4° C. for overnight. The reaction solution was centrifugated at 15,000 rpm and 4° C. for 2 minutes. The precipitation was washed with washing buffer (50 mM Tris-HCl (pH7.5), 150 mM NaCl, 0.1% NP40). […]

RAW 264.7 cells = experiment: Inhibition of MIF activity measured as TNF-alpha production in RAW 264.7 cells (ELISA); assay type: cell-based, mouse; conditions: MIF 10 ng/ml, 0 to 500 ng/ml TRX, LPS 100 ng/ml (FIG. 4)
Experimental: TRX's inhibition of MIF activity was confirmed by measuring a concentration of inflammatory cytokine TNF-α (to be described in detail below).
RAW 264.7 cells were cultured with RPMI 1640 medium containing 10% FCS, 100 U/ml penicillin and 100 μg/ml streptomycin in a 75 cm^2 flask.
RAW 264.7 cells were added to a 24 well plate (1×10^6/cell). MIF having a final concentration of 10 ng/ml and 0 to 500 ng/ml TRX were also added thereto, and left under the condition of 5% CO2 at 37° C. for 4 hours.
Further, 100 ng/ml of LPS was added to the plate (described as LPS (+)), and the plate was left under the condition of 5% CO2 at 37° C. for 4 hours. Then, the medium was collected.
Amount of the generated TNF-alpha (α) was measured with Duo Set ELISA Development system mouse TNF-α kit.
The measuring method was based on the protocol attached to the kit.

rMIF [5] = biological target: T3, rMIF; experiment: Molecular interaction analysis (Biacore, SPR) of rTRX variants and rMIF in oxidation and reduction states, Example 6; assay type: binding; conditions: for change of the dissociation constant value between oxidation state and reduction state: oxidation state versus reduction state; for Kd: rMIF immobilized on CM5 sensor chip, read-out: KD (dissociation constant value)
Experimental: It was confirmed with a molecular interaction analysis whether the cysteine residues at 32 and 35 positions (the active site of TRX) affect the bond between TRX and MIF or not.
rMIF was immobilized in a CM5 sensor chip as a ligand, wherein the concentration of rMIF was adjusted to less than or equal to 200 nM.
Then, rWT TRX, rDM TRX and rC35S TRX were used as analytes to analyze the interaction between these rTRX and rMIF in both oxidation and reduction states, respectively.
In the oxidation state, running buffer, 10 mM HEPES (pH7.4), 150 mM NaCl, 3 mM EDTA and 0.005% Tween 20 were used to adjust the ligand. In the reduction state, 1M DTT was used in addition to the running buffer, 10 mM HEPES (pH7.4), 150 mM NaCl, 3 mM EDTA and 0.005% Tween 20 to adjust the ligand.
Tables 1 and 2 show the dissociation constant value (KD value) calculated from FIG. 6.

[6] = reduction state (DTT added to running buffer)

Molecule: N[C@@H](CCC(=O)N[C@@H](CSN=O)C(=O)NCC(=O)O)C(=O)O [Nitrosoglutathione]
effect of the test substance on the bond between rTRX and rMIF [1]: remarkably strengthen the bond between rTRX and rMIF

Molecule: CCCCC[C@H](O)/C=C/[C@@H]1[C@H]2C/C(=C/CCCC(=O)O)O[C@H]2C[C@H]1O [Prostaglandin I2]
effect of the test substance on the bond between rTRX and rMIF [1]: remarkably strengthen the bond between rTRX and rMIF

Second part, led by results:

bond between TRX and MIF in cells (MIF [2]): bonds directly with MIF | bond between rTRX and rMIF (surface plasmon resonance) (rMIF [3]): concentration-dependent | bond between TRX and MIF outside cells (MIF [4]): bonds directly with MIF | direct bond with rMIF (rMIF [5]; FIG. 6, Tables 1 and 2): bonded directly with rMIF | Kd (rMIF [5]; oxidation state): 25.3 µM | Kd (rMIF [5]; [6]): 29.7 µM
B1: rTRX: Recombinant thioredoxin; His-tagged, expressed in Escherichia coli (Examples 5-7); from Ajinomoto in Examples 3-4 (protein)
chain: T1 sequence (P10599 1-105)
modifications: left off: small tags and cut ends
internalization of MIF into cells (ATL2 cells): inhibits the internalization of MIF into the ATL2 cells | inhibition of rMIF activity (RAW 264.7 cells): inhibits the activity of rMIF depending on the concentration of rTRX | production of MIF-derived TNF-alpha (RAW 264.7 cells): inhibits the production of MIF-derived TNF-alpha | change of the dissociation constant value between oxidation state and reduction state (rMIF [5]): almost no changes in the dissociation constant values

direct bond with rMIF (rMIF [5]; FIG. 6, Tables 1 and 2): bonded directly with rMIF | Kd (rMIF [5]; oxidation state): 11.9 µM | Kd (rMIF [5]; [6]): 16.6 µM
B2: rDM TRX: the rTRX of Example 5 in which the cysteine residues at 32 and 35 positions were converted to serine (protein)
chain: T1 sequence (P10599 1-105) with C32S, C35S
modifications: left off: small tags and cut ends
change of the dissociation constant value between oxidation state and reduction state (rMIF [5]): almost no changes in the dissociation constant values

direct bond with rMIF (rMIF [5]; FIG. 6, Tables 1 and 2): bonded directly with rMIF | Kd (rMIF [5]; oxidation state): 3.95 µM
B3: rC35S TRX: the rTRX of Example 5 in which the cysteine residue at 35 position was converted to serine (protein)
chain: T1 sequence (P10599 1-105) with C35S
modifications: left off: small tags and cut ends
strength of the bond with rMIF compared with the other rTRX (rMIF [5]; FIG. 6, Tables 1 and 2): stronger than the bond between rWT TRX or rDM TRX and MIF | change of the dissociation constant value between oxidation state and reduction state (rMIF [5]): strong bond with rMIF in the oxidation state
